Results published in article PMC6156121 (Science Advances, 2018).

Target: purified mTOR protein (Origene) (human, UniProt P42345 1-2549)
Assay: co-IP

binding result: binds
B1: purified ETV7 protein (Origene) (natural protein)
chain: MQEGELAISPISPVAAMPPLGTHVQARCEAQINLLGEGGICKLPGRLRIQPALWSREDVLHWLRWAEQEYSLPCTAEHGFEMNGRALCILTKDDFRHRAPSSGDVLYELLQYIKTQRRALVCGPFFGGIFRLKTPTQHSPVPPEEVTGPSQMDTRRGHLLQPPDPGLTSNFGHLDDPGLARWTPGKEESLNLCHCAELGCRTQGVCSFPAMPQAPIDGRIADCRLLWDYVYQLLLDTRYEPYIKWEDKDAKIFRVVDPNGLARLWGNHKNRVNMTYEKMSRALRHYYKLNIIKKEPGQKLLFRFLKTPGKMVQDKHSHLEPLESQEQDRIEFKDKRPEISP
